Measurements from article PMC9357639.
Blank lines part the entries; values can stand above or below the substance they belong to.

Tests used:
[1] = molecular target: STAT3 (UniProt P40763); assay: anti-Flag IP of purified Flag-STAT3 and GST-STAT3; conditions: reference: wild type GST- and Flag-STAT3; sites T622
[2] = molecular target: STAT3 (UniProt P40763); assay: size exclusion chromatography, fractions immunoblotted; conditions: sites T622
[3] = molecular target: STAT3 (UniProt P40763); assay: anti-Flag co-IP, Flag-STAT3 with HA-STAT3; conditions: reference: wild type STAT3; sites T622

Chain of STAT3 (P40763 whole entry, stated change not applied): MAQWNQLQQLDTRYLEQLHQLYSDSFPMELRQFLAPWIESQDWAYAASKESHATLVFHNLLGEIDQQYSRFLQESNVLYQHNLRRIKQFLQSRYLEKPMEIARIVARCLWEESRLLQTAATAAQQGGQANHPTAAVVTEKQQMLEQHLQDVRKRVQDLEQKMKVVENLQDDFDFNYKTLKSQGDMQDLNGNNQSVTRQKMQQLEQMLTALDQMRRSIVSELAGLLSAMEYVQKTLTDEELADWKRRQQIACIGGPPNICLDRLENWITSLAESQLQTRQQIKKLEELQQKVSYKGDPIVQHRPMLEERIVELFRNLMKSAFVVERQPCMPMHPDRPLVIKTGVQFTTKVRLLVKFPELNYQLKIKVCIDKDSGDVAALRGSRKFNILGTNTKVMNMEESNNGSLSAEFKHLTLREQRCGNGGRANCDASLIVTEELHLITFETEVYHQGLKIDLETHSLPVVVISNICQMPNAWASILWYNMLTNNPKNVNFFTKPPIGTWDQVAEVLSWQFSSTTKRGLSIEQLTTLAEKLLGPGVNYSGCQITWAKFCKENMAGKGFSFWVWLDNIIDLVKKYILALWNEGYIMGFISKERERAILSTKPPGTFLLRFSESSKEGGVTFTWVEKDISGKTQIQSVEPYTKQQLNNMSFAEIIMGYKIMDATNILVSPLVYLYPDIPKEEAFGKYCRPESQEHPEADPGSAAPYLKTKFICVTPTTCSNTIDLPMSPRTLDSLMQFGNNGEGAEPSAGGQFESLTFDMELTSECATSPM

- binding against the reference [1]: stronger
Substance: STAT3 (from UniProt P40763) T622A GST- and Flag-STAT3

- binding against the reference ([2]; reference: wild type Flag-STAT3): stronger
Substance: STAT3 (from UniProt P40763) Flag-STAT3 T622A

Substance: STAT3 (from UniProt P40763) His-MST2 treated
- binding against the reference ([2]; reference: untreated WT Flag-STAT3): same

- binding against the reference [3]: stronger
Substance: STAT3 (from UniProt P40763) STAT3 T622A
